Measurements from patent publication US20210180049A1 (CHUGAI SEIYAKU KABUSHIKI KAISHA, priority 2013, published 2021).

Key:
[1] = competitive phage ELISA with ATP; format: binding; settings: ATP from equal amount up to 10000 times that of the antigen
Procedure: ATNLSA1-4_D12 and PF1 were each diluted with TBS and subjected to ELISA by the following procedure.
A StreptaWell 96 microtiter plate (Roche) was coated at room temperature for one hour with 100 μl of TBS containing biotin-labeled antigens (a mixture of 5′-adenosine-PEG-biotin and ATP-PEG-biotin). After the antigens were removed by washing each well of the plate with TBST, the wells were blocked with 250 μl of 2% skim milk/TBS for one hour or more. 2% skim milk/TBS was removed, and then the prepared, purified phages were added to each well. The plate was allowed to stand at room temperature for one hour to allow binding of the antibody-displaying phages to the antigens in each well. […] For the competition of the immobilized antigen with ATP, the plate was allowed to stand at room temperature for one hour. Then, after TBST wash, an HRP-conjugated anti-M13 antibody (Amersham Pharmacia Biotech) diluted with TBS was added to each well. The plate was incubated for one hour. Following TBST wash, the TMB single solution (ZYMED) was added to each well. The chromogenic reaction in the solution of each well was terminated by adding sulfuric acid. Then, the developed color was assessed by measuring absorbance at 450 nm.

[2] = SPR (Biacore T200) binding of humanized SMB0002 and its variants to adenosine; settings: Biacore T200, 25° C.; read-out: KD of humanized SMB0002 toward adenosine
Procedure: (§1) Binding of humanized SMB0002 to adenosine and AMP was measured and analyzed by a method using Biacore T200 (GE Healthcare). Protein A (Invitrogen) immobilized in an appropriate amount onto a Sensor chip CM5 (GE Healthcare) by the amine coupling method was allowed to capture the antibody of interest, and the interaction with the antigen adenosine, AMP, ADP, or ATP was observed. The running buffer used was 50 mM Tris-HCl, 150 mM NaCl, 0.02% (w/v) Tween 20, pH 7.6, for adenosine and AMP, and 50 mM Tris-HCl, 150 mM NaCl, 0.02% (w/v) Tween 20, 2 mM MgCl2, pH 7.6, for ADP and ATP. All measurements were carried out at 25° C. The antigens were diluted with the running buffer.
(§2) Then, the running buffer was run at a flow rate of 30 μL/min for five minutes, and dissociation of the antigens from the antibody was observed. Next, 10 mM glycine-HCl, pH 1.5, was added at a flow rate of 30 μL/min for 30 seconds to regenerate the sensor chip. Kinetic parameters such as the association rate constant ka (1/Ms) and the dissociation rate constant kd (l/s) were calculated based on the sensorgrams obtained by the measurements. The dissociation constant KD (M) was calculated from these constants. Each parameter was calculated using Biacore T200 Evaluation Software (GE Healthcare).
(§3) As a result of the measurements, the affinity of each variant toward adenosine and AMP was calculated as KD value. […]

[3] = SPR (Biacore T200) binding of humanized SMB0002 to ATP; settings: Biacore T200, 25° C., 2 mM MgCl2; read-out: KD of humanized SMB0002 toward ATP
Procedure: as §1, §2

[4] = SPR (Biacore T200) binding of humanized SMB0002 and its variants to AMP; settings: Biacore T200, 25° C.; read-out: KD of humanized SMB0002 toward AMP
Procedure: as §1, §2, §3

[5] = SPR (Biacore T200) binding of humanized SMB0002 to ADP; settings: Biacore T200, 25° C., 2 mM MgCl2; read-out: KD of humanized SMB0002 toward ADP
Procedure: as §1, §2

[6] = molecular target: T1, human IL-6 receptor (hIL-6R) (Homo sapiens, UniProt P08887); test: IgG ELISA for hIL-6R binding under small molecule conditions of Table 12; settings: IgG 2.5 μg/mL
T1 sequence (P08887 20-357 limits assumed): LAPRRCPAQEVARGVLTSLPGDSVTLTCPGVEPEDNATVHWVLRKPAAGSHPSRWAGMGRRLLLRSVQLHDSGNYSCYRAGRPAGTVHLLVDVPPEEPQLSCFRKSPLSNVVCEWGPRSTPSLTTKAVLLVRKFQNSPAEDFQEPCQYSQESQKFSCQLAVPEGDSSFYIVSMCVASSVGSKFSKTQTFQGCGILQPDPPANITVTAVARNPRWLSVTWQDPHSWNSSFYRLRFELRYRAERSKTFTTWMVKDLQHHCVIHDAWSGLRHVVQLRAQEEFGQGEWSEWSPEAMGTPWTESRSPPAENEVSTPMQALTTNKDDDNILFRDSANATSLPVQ
Procedure: Three types of obtained antibodies 6RNMSC1-2_F02, 6RNMSC1-3_G02, and GC413 were subjected to ELISA under the nine conditions shown in Table 12. The antigen used was biotin-labeled hIL-6R.
First, a StreptaWell 96 microtiter plate (Roche) was coated with 100 μL of PBS containing biotin-labeled hIL-6R at room temperature for one hour or longer. […] 100 μL of each of the purified IgGs prepared at 2.5 μg/mL using Sample Buffer containing small molecules at the final concentrations shown in Table 12 were added to each well, and the plate was let still at room temperature for one hour to allow each IgG to bind to biotin-labeled hIL-6R present in each well. After washing with Wash Buffer containing small molecules at the final concentrations shown in Table 12, HRP-conjugated anti-human IgG antibody (BIOSOURCE) diluted with Sample Buffer containing the same small molecules was added to each well and the plate was incubated for one hour. After washing with Wash Buffer containing respective small molecules, the chromogenic reaction of TMB single solution (ZYMED) added in each well was terminated by adding sulfuric acid. Then, the color development was measured by absorbance at 450 nm.

[7] = molecular target: T1, human IL-6 receptor (hIL-6R); test: phage ELISA for hIL-6R binding in the presence/absence of small molecule cocktail (SC); settings: absorbance at 450 nm
Procedure: From a single colony of E. coli obtained in (6-1), a phage-containing culture supernatant was collected according to a conventional method (Methods Mol. Biol. (2002) 178, 133-145). […] A StreptaWell 96 microtiter plate (Roche) was coated overnight with 100 μL of TBS containing biotin-labeled hIL-6R. […] After removing 2% skim milk/TBS, purified phages were added to each well of the plate, and the plate was left still at room temperature for one hour to allow antibody-presenting phages to bind to biotin-labeled hIL-6R present in each well in the presence/absence of SC. Each well was washed with TBST or SC/TBST, and HRP-conjugated anti-M13 antibody (Amersham Pharmacia Biotech) diluted with TBS or SC/TBS was added thereto, and the plate was incubated for one hour. After washing with TBST or SC/TBST, the chromogenic reaction of TMB single solution (ZYMED) added in each well was terminated by adding sulfuric acid. Then, the color development was measured by absorbance at 450 nm.

[8] = SPR (Biacore T200) binding of 6RNMSC1-2_F02 and variants to kynurenine; settings: for Kd / ka for kynurenine / kd for kynurenine: Biacore T200, 15° C., 5% DMSO
Procedure: An appropriate amount of protein A (Invitrogen) was immobilized onto Sensor chip CM4 (GE Healthcare) by the amine coupling method. The antibody of interest was captured thereon, and the antigen kynurenine and derivatives thereof were allowed to interact. The running buffer used was 50 mmol/L Tris-HCl, 150 mmol/L NaCl, 0.02% (w/v) Tween 20, 5% DMSO, pH 7.6. All measurements were carried out at 15° C. The antigens were diluted with the running buffer.
Then, the running buffer was run at a flow rate of 30 μL/min for 60 seconds to observe the dissociation of antigens from the antibody. Kinetic parameters, the association rate constant ka (1/Ms) and the dissociation rate constant kd (l/s), were calculated based on the sensorgrams obtained by the measurements. The dissociation constant KD (M) was calculated from these constants. Each parameter was calculated using Biacore T200 Evaluation Software (GE Healthcare).
(§4) Meanwhile, the type of sensor chip immobilized with Protein A was changed to Sensor chip Series S CM3 (GE Healthcare) to measure some of the variants. When kynurenine dissociation was too fast to determine the dissociation rate constant, a dissociation constant KD (M) was calculated by analysis of equilibrium values based on the degree of binding response during the interaction with each antigen (association phase). In this case also, Biacore T200 Evaluation Software (GE Healthcare) was used to calculate the parameters.
as §4
(§5) When kynurenine dissociation was too fast to determine the dissociation rate constant, the dissociation constant KD (M) was calculated by analysis of equilibrium values based on the degree of binding response when it is interacted with each antigen (association phase). Also in this case, the Biacore T200 Evaluation Software (GE Healthcare) was used to calculate parameters. […] Each variant and its parental antibody F02h011/F021003 were compared in terms of the KD value for kynurenine.
as §5, with “analyzing” for “analysis of”, “sequence” for “antibody”

Procedure for Tm measurement by DSC: Measurement by DSC was carried out by a method known to those skilled in the art.
DSC measurement was carried out by a method known to those skilled in the art.

B1: PF1: hIL-6R-binding clone prepared as a negative control; heavy chain SEQ ID NO: 50, light chain SEQ ID NO: 51 (antibody, V domains shown)
VH: QVQLQESGPGLVKPSETLSLTCAVSGYSISDDHAWSWVRQPPGEGLEWIGYISYSGITNYNPSLKGRVTISRDTSKNQFSLKLSSVTAADTAAYYCARVLARITAMDYWGEGTLVTVSS
VL: DIQMTQSPSSLSASVGDSVTITCQASQDISSYLNWYQQKPGKAPELLIYYGSELHSGVPSRFSGSGSGTDFTFTISSLEAEDAATYYCGQGNRLPYTFGQGTKVEIE
binding to biotin-labeled antigen with ATP as competitor [1]: not detected regardless of the ATP concentration

B2: humanized SMB0002: heavy chain variable region SEQ ID NO: 85; light chain variable region SEQ ID NO: 86 (antibody, V domains shown)
VH: QVQLVQSGAEVKKPGASVKVSCKVSGIDLTNYAMGWVRQPPGKGLEWIGIIGADSSTWYPSWVKGRFTISKDTSKNQVVLTMTNMDPVDTATYYCARGRFVGYTNAFDPWGQGTLVTVSS
VL: DIQLTQSPSSLSASVGDRVTITCQSSQSVWNNNYLSWYQQKPGQPPKLLIYDASTLASGVPSRFSGSGSGTDFTLTINSLEAEDAATYYCHGSYANSGWYDNAFGGGTEVVVK
Kd [2]: 7.5 nM
Kd [3]: 140 µM
Kd [4]: 35 µM
Kd [5]: 79 µM

B3: 6RNMSC1-3_G02: antibody binding hIL-6R in the presence of ATP; heavy chain SEQ ID NO: 34, light chain SEQ ID NO: 35 (antibody, listed as Homo sapiens, V domains shown)
VH: EVQLVQSGGDLVKPGGSLRLSCAASGFTFSNYAMHWVRQAPGKGLEWVAVVSYDGSNKYYADSVKGRFTISRDNSKNTLYLQMNSLRAEDTAVYYCARLVPSSGYPGRFDPWGQGTLVTVSS
VL: NIQMTQSPSSLSASVGDRVTITCRASQSISSSLNWYQQIPGKAPKLLIYAASSLQSGVPSRFSGSGSGTDFTLTISSLQPEDFASYYCQQSYSAWTFGQGTKVEIK
absorbance under condition 9 (no small molecule) compared to condition 8 (cocktail of all small molecules) ([6]; absorbance at 450 nm): significantly lower
small molecule in whose presence the antibody binds hIL-6R ([6]; conditions 1-9 of Table 12, absorbance at 450 nm): binds to the antigen hIL-6R in the presence of ATP
binding activity to the antigen hIL-6R in the presence of a small molecule mixture [7]: having binding activity

B4: F02h011/F021003: 6RNMSC1-2_F02 with framework restored to germline; variable regions SEQ ID NO: 95 and 96 (antibody, V domains shown)
VH: QVQLVQSGAEVKKPGSSVKVSCKASGGTFSSYAISWVRQAPGQGLEWMGGIIPIFGTANYAQKFQGRVTITADESTSTAYMELSSLRSEDTAVYYCARDAPVVARPRGAFDIWGQGTLVTVSS
VL: DIVMTQSPLSLPVTPGEPASISCRSSQSLVHSDGNTYLSWYLQKPGQSPQLLIYEISNRFSGVPDRFSGSGSGTDFTLKISRVEAEDVGVYYCMQATQFPRTFGQGTKVEIK
Tm (Tm measurement by DSC): 85.2 °C
kynurenine binding (in words) ([8]; Biacore): retain kynurenine binding
Kd [8]: 110 µM
ka for kynurenine [8]: 3664 M⁻¹ s⁻¹
kd for kynurenine [8]: 0.40 L/s

B5: F02h011/F021098: F02h011/F021003 with Lch_Ser56Tyr; variable regions SEQ ID NO: 95 and 97 (antibody, V domains shown)
VH: QVQLVQSGAEVKKPGSSVKVSCKASGGTFSSYAISWVRQAPGQGLEWMGGIIPIFGTANYAQKFQGRVTITADESTSTAYMELSSLRSEDTAVYYCARDAPVVARPRGAFDIWGQGTLVTVSS
VL: DIVMTQSPLSLPVTPGEPASISCRSSQSLVHSDGNTYLSWYLQKPGQSPQLLIYEISNRFYGVPDRFSGSGSGTDFTLKISRVEAEDVGVYYCMQATQFPRTFGQGTKVEIK
Kd [8]: 72 µM
ka for kynurenine [8]: 3686 M⁻¹ s⁻¹
kd for kynurenine [8]: 0.26 L/s
